The record followed here is patent CN115368458A (BIO THERA SOLUTIONS LTD, dated 2022).

Changes are numbered by the printed parent chain.

For assay [1], the target named is T1, 人源hCD73-His (北京义翘神州, Catalog 10904-H08H) (human, UniProt P21589 27-547).
T1 construct: Bought protein; also called 人CD73; not shown: His tag
T1 sequence (looked up): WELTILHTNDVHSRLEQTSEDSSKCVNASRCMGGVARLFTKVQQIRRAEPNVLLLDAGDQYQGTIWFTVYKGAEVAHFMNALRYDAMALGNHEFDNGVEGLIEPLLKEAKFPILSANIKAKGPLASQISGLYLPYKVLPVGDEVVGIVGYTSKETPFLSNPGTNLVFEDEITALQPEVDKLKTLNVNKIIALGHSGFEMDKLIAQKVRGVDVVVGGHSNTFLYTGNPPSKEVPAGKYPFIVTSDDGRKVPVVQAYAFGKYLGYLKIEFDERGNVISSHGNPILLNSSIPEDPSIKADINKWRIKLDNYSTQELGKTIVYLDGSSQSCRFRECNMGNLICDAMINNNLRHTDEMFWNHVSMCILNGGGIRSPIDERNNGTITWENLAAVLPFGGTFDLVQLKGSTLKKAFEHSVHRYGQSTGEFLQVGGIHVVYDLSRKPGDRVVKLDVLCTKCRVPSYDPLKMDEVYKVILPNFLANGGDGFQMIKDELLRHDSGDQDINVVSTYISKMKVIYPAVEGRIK
As to the kind of experiment: SPR, Biacore T200, antibody captured on Protein A chip, hCD73-His as analyte from 32 nM, 1:1 model. Background: SPR reads the build-up and loss of mass on a sensor chip optically.

Assay [2] deals with T2, CD73 on the cell membrane of MDA-MB-231 cells (human breast cancer cells) (human, UniProt P21589 27-549).
T2 sequence (looked up): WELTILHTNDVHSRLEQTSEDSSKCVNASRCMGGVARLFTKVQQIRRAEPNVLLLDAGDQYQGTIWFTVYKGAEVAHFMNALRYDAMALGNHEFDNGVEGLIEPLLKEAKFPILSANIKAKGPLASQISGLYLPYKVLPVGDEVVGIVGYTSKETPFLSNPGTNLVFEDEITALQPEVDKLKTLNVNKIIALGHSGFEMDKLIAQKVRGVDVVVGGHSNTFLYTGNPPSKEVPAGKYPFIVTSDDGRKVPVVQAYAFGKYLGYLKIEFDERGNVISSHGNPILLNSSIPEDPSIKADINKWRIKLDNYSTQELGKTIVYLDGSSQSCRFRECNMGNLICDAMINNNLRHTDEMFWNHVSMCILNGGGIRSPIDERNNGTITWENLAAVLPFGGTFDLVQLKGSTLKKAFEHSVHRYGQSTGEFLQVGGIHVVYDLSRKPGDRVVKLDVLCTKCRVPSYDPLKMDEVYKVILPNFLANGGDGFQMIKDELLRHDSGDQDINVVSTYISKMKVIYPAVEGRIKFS
As to the kind of experiment: cell-based or functional assay.

Assay [3] addresses T1, 人源hCD73-His (北京义翘神州, Catalog 10904-H08H). Put plainly: ELISA, hCD73-His coated at 2 μg/ml, antibody from 4 μg/ml in 3-fold steps, anti-h-Kappa-HRP. In general terms: ELISA stands for enzyme-linked immunosorbent assay.
The target of assay [4] is T3, 鼠源mCD73-His (近岸生物, Catalog CD3-M52H9) (mouse, UniProt Q61503 29-551).
T3 construct: Bought protein; also called 小鼠CD73; not shown: His tag
T3 sequence (looked up): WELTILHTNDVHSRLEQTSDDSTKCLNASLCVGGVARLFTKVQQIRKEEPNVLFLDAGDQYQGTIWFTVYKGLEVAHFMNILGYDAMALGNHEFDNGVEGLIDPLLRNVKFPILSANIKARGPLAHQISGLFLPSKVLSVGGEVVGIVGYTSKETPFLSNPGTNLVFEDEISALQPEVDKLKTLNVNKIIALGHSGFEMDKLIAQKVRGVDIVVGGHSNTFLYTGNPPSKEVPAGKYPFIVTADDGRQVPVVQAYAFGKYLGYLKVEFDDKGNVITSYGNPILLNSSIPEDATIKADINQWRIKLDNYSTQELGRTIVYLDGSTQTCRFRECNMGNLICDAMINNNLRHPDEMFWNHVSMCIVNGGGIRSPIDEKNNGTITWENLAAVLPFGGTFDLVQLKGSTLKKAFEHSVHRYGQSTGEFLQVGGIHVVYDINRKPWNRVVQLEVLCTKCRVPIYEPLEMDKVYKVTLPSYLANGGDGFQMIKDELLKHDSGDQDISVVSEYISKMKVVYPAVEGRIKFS
Put plainly: ELISA, mCD73-His coated at 2 μg/ml, anti-h-Kappa-HRP detection; NA表示不结合或基本不结合.

The target of assay [5] is T4, 食蟹猴cCD73-His (近岸生物, Catalog CD3-C52H9) (cynomolgus monkey, UniProt A0A2K5V5U7 27-547).
T4 construct: Bought protein; also called 食蟹猴CD73; not shown: His tag
T4 sequence: T1 sequence (looked up) with M199T, T350A, V466I
Put plainly: ELISA, cCD73-His coated at 2 μg/ml, antibody from 4 μg/ml in 3-fold steps, anti-h-Kappa-HRP.

Assay [6] addresses T2, CD73 on the cell membrane of MDA-MB-231 …. Put plainly: flow cytometry (MFI) on MDA-MB-231 cells, antibody from 10 ug/ml in 2-fold steps, anti-humanFc-PE. A general note: Flow cytometry measures light scatter and fluorescence of single cells or particles in a stream.

B1: 抗体P59-L12 (antibody, IgG1, V domains shown)
VH: EVQLVESGGGLVQPGGSLRLSCAASGFSFDTYAMSWVRQAPGKGLEWVSAISGDTGVTGYADSVKGRFTISRDNSKNTLYLQMNSLRAEDTAVYYCARDRYAYLVDGWFDYWGQGTLVTVSS
VL: DIQMTQSPSSLSASVGDRVTITCRASQGISSYLAWYQQKPGKAPKLLIYAASSLQSGVPSRFSGSGSGTDFTLTISSLQPEDFATYYCQTSDFFPNPVTFGQGTKVEIK
On to B1, for which, in assay [1], the dissociation constant (Kd) – broadly, the equilibrium constant for the complex coming apart – was 8.25 nM; the off-rate constant (koff) (in general, the rate constant with which the complex falls apart) was 0.0068 s⁻¹; the kon – broadly, a measure of how fast the partners come together – came to 827000 M⁻¹ s⁻¹.

B2: 抗体P59-L1 (antibody, IgG1, V domains shown)
VH: B1 VH
VL: B1 VL with T90Q, S91A, D92S, F93Y, F94T, P95G, N96D
As to B2, in assay [1], the dissociation constant Kd stood at 7.67 nM, the off-rate constant (koff) came to 0.00557 s⁻¹ and the association rate constant (kon) worked out at 726000 M⁻¹ s⁻¹.

B3: 抗体P59-L17 (antibody, IgG1, V domains shown)
VH: B1 VH
VL: B1 VL with S91W, D92S, F93G, F94W, N96D, P97Y, V98L
notes: also called P59-17
As to B3, the “IC50 of the inhibition of the enzyme activity of cell membrane CD73 (MDA-MB-231 cells, AMP/ATP luminescence assay)” value in assay [2] is 0.127 µg/mL. Further, the EC50 (in general, the concentration at which the effect is half-maximal) in assay [3] was 0.0339 µg/mL; in assay [5], 0.0427 µg/mL; in assay [6], 0.438 µg/mL. Further, the binding result in assay [4] is listed as “no binding (tested: 4μg/ml (highest concentration tested))”. The same molecule came in with an equilibrium dissociation constant (Kd) in assay [1] of 0.569 nM. In addition, the koff in assay [1] was found to be 0.000126 s⁻¹. Besides, the kon in assay [1] is 221000 M⁻¹ s⁻¹.

B4: 抗体P59-L6 (antibody, IgG1, V domains shown)
VH: B1 VH
VL: B1 VL with Q89A, T90Q, S91Y, F94S, P95F, N96Y, P97G
In assay [1], B4 registered a dissociation constant (Kd) of 1.85 nM, a dissociation rate constant (koff) of 0.000198 s⁻¹ and an on-rate (kon) of 107000 M⁻¹ s⁻¹.
